Results from US20140328762A1, “Fluorogenic Peptide Probes and Assays” (priority 2011, published 2014).

Tests used:
[1] = target: T1, full length human XRCC4 protein (recombinant, E. coli) (human), Q13426; assay: fluorescence of 2 µM beacon with increasing concentration of XRCC4 (FIG. 8)
[2] = target: T1, full length human XRCC4 protein …; assay: absorbance spectra, 1 µM beacon, 40 µM protein; beacon only 0.40 (FIG. 7)
[3] = target: truncated XRCC4 protein that does not have DNA ligase IV binding site (recombinant, E. coli) (human), Q13426; assay: as above
[4] = target: T2, E3 peptide; assay: CD spectra analysis, curve fitting (data not shown)
T2 chain: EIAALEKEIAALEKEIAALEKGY

[5] = target: T2, E3 peptide; assay: fluorescence titration of 10 nM beacon with E3 peptide, curve fitting
[6] = target: FosLZ (MBP-FosLZ, fusion protein of MBP and the cFos leucine zipper) [MBP: P0AEX9]; assay: fluorescence at 580 nm, 100 nM beacon, 10 µM partner (FIG. 14A, column C)
[7] = target: unlabeled GCN4 244 (yeast); assay: fluorescence at 580 nm, 100 nM beacon, 10 µM partner (FIG. 14A, column D)
[8] = target: T2, E3 peptide; assay: fluorescence titration of 1 µM beacon with E3 peptide, curve fitting
[9] = target: T2, E3 peptide; assay: Kd of the beacon (fluorescence) compared with Kd of unlabeled K3-b1b3 (CD), both for E3
[10] = target: unlabeled JunLZ-Lb1b4 [MBP: P0AEX9]; assay: fluorescence at 580 nm, 100 nM beacon, 10 µM partner (FIG. 14A, column B)
[11] = target: T2, E3 peptide; assay: fluorescence at 580 nm, 100 nM beacon, 10 µM partner (FIG. 14A, column E)
[12] = target: T2, E3 peptide; assay: fluorescence titration of 1 µM beacon with E3 peptide

T1 sequence (Q13426 whole entry): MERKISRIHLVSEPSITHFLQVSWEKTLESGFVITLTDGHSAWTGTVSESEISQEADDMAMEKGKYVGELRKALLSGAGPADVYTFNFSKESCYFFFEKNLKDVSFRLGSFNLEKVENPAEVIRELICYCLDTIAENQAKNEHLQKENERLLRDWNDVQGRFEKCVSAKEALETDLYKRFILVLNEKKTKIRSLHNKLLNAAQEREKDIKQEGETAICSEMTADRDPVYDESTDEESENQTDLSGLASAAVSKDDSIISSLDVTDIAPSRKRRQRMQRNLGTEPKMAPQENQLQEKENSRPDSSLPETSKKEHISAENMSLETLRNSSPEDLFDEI
Chain of truncated XRCC4 protein that does not have DNA ligase IV binding site (recombinant, E. coli) (human), Q13426 (Q13426 2-150 limits assumed): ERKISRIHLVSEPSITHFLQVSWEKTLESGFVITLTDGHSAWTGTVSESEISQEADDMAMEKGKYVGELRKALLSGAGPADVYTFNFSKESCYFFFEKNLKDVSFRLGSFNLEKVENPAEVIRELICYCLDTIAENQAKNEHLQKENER

CREYDSYGDSYFIDTDLNQLKEVFSGIKCG (modifications not checked) [LigIV-C1 peptide beacon]
fluorescence enhancement [1]: 9.5 fold
A550/A520 ratio [2]: 0.46
A550/A520 ratio [3]: 0.38

KICALKAKIAALKAKICALKAGY (modifications not checked) [K3-b1b3 peptide (unlabeled)]
Kd [4]: 45 nM

KICALKAKIAALKAKICALKAGY (modifications not checked) [K3-b1b3 beacon]
Kd [5]: 738 nM
fluorescence enhancement over beacon only [6]: 1.6 fold
fluorescence enhancement over beacon only [7]: 1.2 fold
Kd [8]: 766 nM
fold decrease of binding affinity against unlabeled K3-b1b3 [9]: 17 fold
fluorescence enhancement over beacon only [10]: 1.5 fold
fluorescence enhancement over beacon only [11]: 7 fold
maximum fluorescence enhancement [12]: 12 fold
